This assay concerns the target GST-SETD6 (UniProt Q8TBK2).

GST-SETD6, sequence (Q8TBK2 whole entry): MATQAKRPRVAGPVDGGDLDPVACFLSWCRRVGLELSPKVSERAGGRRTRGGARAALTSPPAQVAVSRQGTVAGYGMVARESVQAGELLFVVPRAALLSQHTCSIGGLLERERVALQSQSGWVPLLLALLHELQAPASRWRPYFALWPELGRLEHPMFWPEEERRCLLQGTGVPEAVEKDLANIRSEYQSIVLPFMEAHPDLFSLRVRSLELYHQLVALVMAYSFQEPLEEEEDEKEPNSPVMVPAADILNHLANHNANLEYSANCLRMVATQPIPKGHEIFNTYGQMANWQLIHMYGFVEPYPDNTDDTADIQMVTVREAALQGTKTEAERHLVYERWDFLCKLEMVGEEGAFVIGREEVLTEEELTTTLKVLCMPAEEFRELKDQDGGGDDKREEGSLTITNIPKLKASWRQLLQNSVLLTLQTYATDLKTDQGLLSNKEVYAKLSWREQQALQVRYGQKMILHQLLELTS

With “vp22-RelA302-316 peptide (from UniProt Q04206 302-316)”, the auto-methylation signal of recombinant GST-SETD6 (in vitro methylation assay with 3H-labeled S-adenosyl methionine) with increasing amounts of vp22-RelA; significant reduction at 0.5 μM was 2 µM.
